T1: human DR3 (TNFRSF25) expressed on cells (human, UniProt Q93038 25-417)
T1 sequence: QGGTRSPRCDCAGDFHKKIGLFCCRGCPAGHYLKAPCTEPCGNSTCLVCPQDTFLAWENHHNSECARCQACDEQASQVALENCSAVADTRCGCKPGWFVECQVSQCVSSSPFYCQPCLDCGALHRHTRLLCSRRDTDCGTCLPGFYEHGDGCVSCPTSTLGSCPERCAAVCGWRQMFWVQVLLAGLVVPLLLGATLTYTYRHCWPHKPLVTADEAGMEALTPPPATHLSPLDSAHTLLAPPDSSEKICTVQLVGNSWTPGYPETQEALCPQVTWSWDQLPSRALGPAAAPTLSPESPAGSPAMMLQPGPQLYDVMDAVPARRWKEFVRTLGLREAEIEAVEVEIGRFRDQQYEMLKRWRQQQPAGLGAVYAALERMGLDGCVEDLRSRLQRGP

T2: DR3-8i (human)
T2 construct: also called purified monomeric DR3-8i antigen protein
T2 chain: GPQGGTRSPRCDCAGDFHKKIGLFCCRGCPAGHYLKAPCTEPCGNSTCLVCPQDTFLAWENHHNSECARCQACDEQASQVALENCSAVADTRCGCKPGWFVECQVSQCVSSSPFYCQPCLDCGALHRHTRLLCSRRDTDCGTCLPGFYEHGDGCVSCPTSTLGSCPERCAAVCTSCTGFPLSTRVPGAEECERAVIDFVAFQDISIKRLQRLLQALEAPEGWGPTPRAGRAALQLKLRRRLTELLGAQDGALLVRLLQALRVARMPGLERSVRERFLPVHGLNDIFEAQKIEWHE


Tests used:
[1] = biological target: T1, human DR3 (TNFRSF25) expressed on cells; experiment: cell-based or functional assay
DR3-8i [2] = biological target: T2, DR3-8i; experiment: BLI, IgG captured on protein A, DR3-8i in solution; Average
DR3-8i [3] = biological target: T2, DR3-8i; experiment: BLI, IgG captured on protein A, DR3-8i in solution; Experiment 2
DR3-8i [4] = biological target: T2, DR3-8i; experiment: BLI, IgG captured on protein A, DR3-8i in solution; Experiment 1

Row | EC50 (pM), DR3 Jurkat reporter [1] [pM] | Signal (FLU) [1] [FLU] | Kd (DR3-8i [2]) [nM] | Kd (DR3-8i [3]) [nM] | Kd (DR3-8i [4]) [nM] | Binder
1 | 261 | 3.27e+06 | 0.188 | 0.184 | 0.192 | VHg9/VLg11 (antibody, human IgG1, V domains shown, human IgG1) VH: EVQLVESGGGLVKPGGSLRLSCAASGFTFSSYAMSWVRQAPGKGLEWVSTISDGDSYSYFPDSVKDRFTISRDNAKNSLYLQMNSLRAEDTAVYYCARDRIYGSVQYYAMDYWGQGTLVTVSS VL: DIVMTQSPDSLAVSLGERATINCRASESVEFSGTSLMQWYQQKPGQPPKLLIYAASNVESGVPDRFSGSGSGTDFTLTISSLQAEDVAVYYCQQSRKLPYTFGQGTKLEIK
2 | – | 2.43e+06 | – | – | – | VHg1/mVL (antibody, human IgG1, V domains shown) VH: QVQLVQSGGGLVQPGGSLRLSCAASGFTFSSYAMSWVRQAPGKGLEWVSTISDGDSYSYFPDSVKDRFTISRDNSKNTLYLQMNSLRAEDTSVYYCARDRIYGSVQYYAMDYWGQGTLVTVSS VL: DIVLTQSPASLAVSLGQRATISCRASESVEFSGTSLMQWYQQRPGLPPKLLIYAASNVESGVPARFSGSGSGTDFSLNIHPVEEDDIAMYFCQQSRKLPYTFGGGTKLEIN
3 | 322 | 2.76e+06 | 0.0228 | 0.0445 | 0.001 | VHg1/VLg12 (antibody, human IgG1, V domains shown, human IgG1) VH: QVQLVQSGGGLVQPGGSLRLSCAASGFTFSSYAMSWVRQAPGKGLEWVSTISDGDSYSYFPDSVKDRFTISRDNSKNTLYLQMNSLRAEDTSVYYCARDRIYGSVQYYAMDYWGQGTLVTVSS VL: EIVLTQSPATLSLSPGERATLSCRASESVEFSGTSLMQWYQQKPGQAPRLLIYAASNVESGIPARFSGSGSGTDFTLTISSLEPEDFAVYYCQQSRKLPYTFGQGTKLEIK
4 | – | 2.42e+06 | – | – | – | VHg5/VLg5 (antibody, human IgG1, V domains shown) VH: QVQLQQSGGGLVQAGGSLRLSCAASGFTFTSYAMSWVRQAPGKGLEWVATISDGDSYSYFPDSVKDRFIISRDNAKNSLFLQMNSLRAEDTAVYYCARDRIYGSVQYYAMDYWGRGTLVTVSS VL: EIVLTQSPGTLSLSPGERGTLSCRASESVEFSGTSLMQWYQQKPGQAPRLLIYAASNVESGIPDRFSGSGSETDFTLTISRLEPEDLAVYYCQQSRKLPYTFGQGTRLEIK
5 | – | 1.99e+06 | – | – | – | VHg1/VLg5 (antibody, human IgG1, V domains shown) VH: QVQLVQSGGGLVQPGGSLRLSCAASGFTFSSYAMSWVRQAPGKGLEWVSTISDGDSYSYFPDSVKDRFTISRDNSKNTLYLQMNSLRAEDTSVYYCARDRIYGSVQYYAMDYWGQGTLVTVSS VL: EIVLTQSPGTLSLSPGERGTLSCRASESVEFSGTSLMQWYQQKPGQAPRLLIYAASNVESGIPDRFSGSGSETDFTLTISRLEPEDLAVYYCQQSRKLPYTFGQGTRLEIK
6 | – | 2.23e+06 | – | – | – | VHg9/VLg1 (antibody, human IgG1, V domains shown) VH: EVQLVESGGGLVKPGGSLRLSCAASGFTFSSYAMSWVRQAPGKGLEWVSTISDGDSYSYFPDSVKDRFTISRDNAKNSLYLQMNSLRAEDTAVYYCARDRIYGSVQYYAMDYWGQGTLVTVSS VL: DVVMTQSPDSLAVSLGERATINCRASESVEFSGTSLMQWYQQKPGQPPKLLIYAASNVESGVPDRFSGSGSGTDFTLTISSLQAEDVVVYYCQQSRKLPYTFGGGTKVEIK
7 | – | 2.32e+06 | – | – | – | VHg9/VLg6 (antibody, human IgG1, V domains shown) VH: EVQLVESGGGLVKPGGSLRLSCAASGFTFSSYAMSWVRQAPGKGLEWVSTISDGDSYSYFPDSVKDRFTISRDNAKNSLYLQMNSLRAEDTAVYYCARDRIYGSVQYYAMDYWGQGTLVTVSS VL: DVVMTQSPPSLPVTPGEPASISCRASESVEFSGTSLMQWYLQKPGQSPQVLIYAASNVESGVPDRFSGSGSGTDFTLKISRVEAEDVGVYYCQQSRKLPYTFGQGTRLEIK
8 | 117 | 2.68e+06 | 0.121 | 0.177 | 0.0644 | VHg2/VLg12 (antibody, human IgG1, V domains shown, human IgG1) VH: QMQLVQSGGGLVKPGGSLRLSCAASGFTFSSYAMSWIRQAPGKGLEWVSTISDGDSYSYFPDSVKDRFTISRDNAKNSLYLQMNSLRAEDTAVYYCTRDRIYGSVQYYAMDYWGRGTLVTVSS VL: EIVLTQSPATLSLSPGERATLSCRASESVEFSGTSLMQWYQQKPGQAPRLLIYAASNVESGIPARFSGSGSGTDFTLTISSLEPEDFAVYYCQQSRKLPYTFGQGTKLEIK
9 | 115 | 2.68e+06 | 0.198 | 0.146 | 0.25 | VHg6/VLg4 (antibody, human IgG1, V domains shown, human IgG1) VH: QVQLQQSGGGLVQPGGSLRLSCAASGFTFSSYAMSWVRQAPGKGLEWVATISDGDSYSYFPDSVKDRFTISRDNARNSLYLQMNSLRAEDTAVYYCARDRIYGSVQYYAMDYWGRGTLVTVSS VL: DVVMTQSPDSLAVSLGERATISCRASESVEFSGTSLMQWYQQKPRQPLKLLIYAASNVESGVPDRFSGSGSGTDFTLTISSLQAEDVAVYYCQQSRKLPYTFGQGTRLEIK
10 | 245 | 3.24e+06 | 0.205 | 0.244 | 0.166 | VHg10/VLg11 (antibody, human IgG1, V domains shown, human IgG1) VH: EVQLVESGGGLVQPGGSLRLSCAASGFTFSSYAMSWVRQAPGKGLEWVSTISDGDSYSYFPDSVKDRFTISRDNSKNTLYLQMNSLRAEDTAVYYCARDRIYGSVQYYAMDYWGQGTLVTVSS VL: DIVMTQSPDSLAVSLGERATINCRASESVEFSGTSLMQWYQQKPGQPPKLLIYAASNVESGVPDRFSGSGSGTDFTLTISSLQAEDVAVYYCQQSRKLPYTFGQGTKLEIK
11 | 134 | 2.47e+06 | 0.157 | 0.0876 | 0.227 | VHg6/VLg12 (antibody, human IgG1, V domains shown, human IgG1) VH: QVQLQQSGGGLVQPGGSLRLSCAASGFTFSSYAMSWVRQAPGKGLEWVATISDGDSYSYFPDSVKDRFTISRDNARNSLYLQMNSLRAEDTAVYYCARDRIYGSVQYYAMDYWGRGTLVTVSS VL: EIVLTQSPATLSLSPGERATLSCRASESVEFSGTSLMQWYQQKPGQAPRLLIYAASNVESGIPARFSGSGSGTDFTLTISSLEPEDFAVYYCQQSRKLPYTFGQGTKLEIK
12 | 570 | 3.17e+06 | 0.204 | 0.167 | 0.242 | VHg10/VLg4 (antibody, human IgG1, V domains shown, human IgG1) VH: EVQLVESGGGLVQPGGSLRLSCAASGFTFSSYAMSWVRQAPGKGLEWVSTISDGDSYSYFPDSVKDRFTISRDNSKNTLYLQMNSLRAEDTAVYYCARDRIYGSVQYYAMDYWGQGTLVTVSS VL: DVVMTQSPDSLAVSLGERATISCRASESVEFSGTSLMQWYQQKPRQPLKLLIYAASNVESGVPDRFSGSGSGTDFTLTISSLQAEDVAVYYCQQSRKLPYTFGQGTRLEIK
13 | 1230 | 2.38e+06 | 0.491 | 0.618 | 0.364 | VHg3/VLg11 (antibody, human IgG1, V domains shown, human IgG1) VH: EVQLVQSGGGLVKPGGSLRLSCAASGFKFSSYAMSWVRQAPGKGLEWLSTISDGDSYSYFPDSVKDRFIISRDNAKNSLYLQMNSLRVEDTGVYYCARDRIYGSVQYYAMDYWGQGTLVTVSS VL: DIVMTQSPDSLAVSLGERATINCRASESVEFSGTSLMQWYQQKPGQPPKLLIYAASNVESGVPDRFSGSGSGTDFTLTISSLQAEDVAVYYCQQSRKLPYTFGQGTKLEIK
14 | 634 | 3.08e+06 | 0.246 | 0.259 | 0.233 | VHg10/VLg5 (antibody, human IgG1, V domains shown, human IgG1) VH: EVQLVESGGGLVQPGGSLRLSCAASGFTFSSYAMSWVRQAPGKGLEWVSTISDGDSYSYFPDSVKDRFTISRDNSKNTLYLQMNSLRAEDTAVYYCARDRIYGSVQYYAMDYWGQGTLVTVSS VL: EIVLTQSPGTLSLSPGERGTLSCRASESVEFSGTSLMQWYQQKPGQAPRLLIYAASNVESGIPDRFSGSGSETDFTLTISRLEPEDLAVYYCQQSRKLPYTFGQGTRLEIK
15 | 136 | 2.9e+06 | 0.0536 | 0.0435 | 0.0636 | VHg2/VLg11 (antibody, human IgG1, V domains shown, human IgG1) VH: QMQLVQSGGGLVKPGGSLRLSCAASGFTFSSYAMSWIRQAPGKGLEWVSTISDGDSYSYFPDSVKDRFTISRDNAKNSLYLQMNSLRAEDTAVYYCTRDRIYGSVQYYAMDYWGRGTLVTVSS VL: DIVMTQSPDSLAVSLGERATINCRASESVEFSGTSLMQWYQQKPGQPPKLLIYAASNVESGVPDRFSGSGSGTDFTLTISSLQAEDVAVYYCQQSRKLPYTFGQGTKLEIK
16 | 1480 | 2.6e+06 | 0.4 | 0.409 | 0.39 | VHg3/VLg12 (antibody, human IgG1, V domains shown, human IgG1) VH: EVQLVQSGGGLVKPGGSLRLSCAASGFKFSSYAMSWVRQAPGKGLEWLSTISDGDSYSYFPDSVKDRFIISRDNAKNSLYLQMNSLRVEDTGVYYCARDRIYGSVQYYAMDYWGQGTLVTVSS VL: EIVLTQSPATLSLSPGERATLSCRASESVEFSGTSLMQWYQQKPGQAPRLLIYAASNVESGIPARFSGSGSGTDFTLTISSLEPEDFAVYYCQQSRKLPYTFGQGTKLEIK

— patent WO2025083273A1 (dated 2025)
